In article PMC10955559:

Columns and labels:
Experiment in all cases: purified protein
Settings in all cases: 100 mM sodium acetate, pH 5.5, 37 °C, 30 min, no added calcium
purified protein [1] = substrate: OC[C@H]1O[C@@](CO)(O[C@H]2O[C@H](CO)[C@@H](O)[C@H](O)[C@H]2O)[C@@H](O)[C@@H]1O; assay type: biochemical, Aedes aegypti
purified protein [2] = substrate: OC[C@H]1O[C@@](CO)(O[C@H]2O[C@H](CO)[C@@H](O)[C@H](O)[C@H]2O)[C@@H](O)[C@@H]1O; assay type: biochemical, Culex quinquefasciatus
purified protein [3] = substrate: OC[C@H]1O[C@@](CO)(O[C@H]2O[C@H](CO)[C@@H](O)[C@H](O)[C@H]2O)[C@@H](O)[C@@H]1O; assay type: biochemical, Anopheles gambiae

B1: AeGluc (Aedes aegypti) (protein)
chain: LDWWEHGNFYQVYPRSFKDSDGDGIGDLDGVTEKLKYLKDIGMDGVWLSPIFSSPMADFGYDISNFREIQTEYGDLDAFQRLSDKCKQLGLHLILDFVPNHTSDQHEYFKKSVQKDETYKDFYVWHPGVHGPNNTKVPPSNWISVFRGSSWEWNEERQEFYLHQFLKEQPDLNYRNPAVVEEMKNVLRYWLDRGVSGFRIDAVPYLFESDIIDGRYRNEPESRTTDDPENPAYLVHTQTMDQPETYDMIYQWRAVLDEYSKTDNRTRIMMTEGYTSLPKIIEFFGNATANGAQIPFNFEVISNVKKNSTGADFATYVKRWLDAKPANRRSNWVLGNHDNNRLGSRLGENKIDLYNIALQTLPDIAVTYYGEEIGMLDQWIPWNETVDPAACRSDEASYSAYSRDPARTPMQWDSGKNAGFSKAAKTWLPVADNYKTLNVKIQDRARKSHLKIFKKLTKYRKRQILTEGDIDIKVSGENLLVYKRKVDKVGYVVVALNFGTEPVALGLSSLFDRADQRMQVVVSSNRVSTPDNVWVDVDNYVLIGESGIVLQYLWGKNPIVS
In the case of B1, the Km (purified protein [1]) is reported as 47.6 ± 16.3 mM, the Vmax (purified protein [1]) is reported as 740 µM/min and the kcat (purified protein [1]) is reported as 805 ± 66.7 s⁻¹. It also gave a kcat/Km (purified protein [1]) of 16900 ± 1380 M⁻¹ s⁻¹.

B2: CxGluc (Culex quinquefasciatus) (protein)
chain: LQWWEHGNFYQVYPRSFKDSDGNGIGDLDGVTEKLQYLKDVGMDGIWLSPIFASPMADFGYDISDFYNIQGEYGDLAAFERLSAKCKELGLRLILDFVPNHTSNQHEYFKKSVQKEDPYTNYYVWHPGVTNEDGTKSPPSNWISVFRGSAWEWNEDRQEYYLHQFLKEQPDLNYRDPALVEEMKNVLKFWLNKGVSGFRIDAVPYLFESVEVENRYVDEPLSRATDDAENPAYLIHNQTMDQPETYDMIYQWRAVLDEFTAKDNQTRIMMTEGYTSIPNVMKFFGEGEQNGAQIPFNFQMISNLRKTSTAADFARYANLWLDNLPAGRRSNWVLGNHDNNRIGSRLGEAKIDLYNIALQTLPDIAVTYYGEEIGMVDQPIPFNETVDPAGLRAGPDDYTLYSRDPARTPMQWNSDKNAGFSSADKTWLPVATNYKQLNVKAQDAAQKSHLKLFKRLTTYRKRQILTHGDLDLRTTDSNLVLYKRKVDKVGYVVVVLNFSDEPQSLAAIKQQFPGADDRLQVVASSKLVTIKDNKWINVADTELPGESAIVLQKLWGPNPVVVYEA
B2 showed a Km (purified protein [2]) of 40.1 ± 15.1 mM, a Vmax (purified protein [2]) of 690 µM/min and a kcat (purified protein [2]) of 750 ± 75 s⁻¹. For the same protein, the kcat/Km (purified protein [2]) was 18700 ± 1850 M⁻¹ s⁻¹.

B3: AnGluc (Anopheles gambiae) (protein)
chain: HRPLPIRKAHKFDWWERGNFYQIYPRSFKDSDGDGIGDLKGITQTIDYLKTIGIDGVWLSPIFKSPMNDFGYDISDFYAIQEEYGTMEDFEELAAKCASIGLKLILDFVPNHSSDEHEHFRLSEEGIEPYKDYYIWHSGVLDANGTRHPPSNWISVFRGSAWQWSDKRQQYYLHQFQKKQPDLNYRNPALVEEMKNVMRFWLNKGIAGFRIDALPYLFESEEVDGHYRDEPLSGQATDDPDNPAYLTHTETKDQPETYDMVHQWRQVVDEYTARDNFTRIILTEAYTAVQNMTRFYGTPAAPGAQIPFNFQLITLLTVNSTGRDFVNAVQSWTRAMPSGAIANWVLGNHDNSRIASRLGVARADLYNIALQTLPGIAVTYYGEEIAMVDQWISWNDTIDPAACNADPATYELYSRDPVRTPFQWSNGTNAGFSNASRTWLPVADGYRELNVAAQLAAPRSHLKTFMQLTAYRKRRLLAEGNFVLRTVGRDLVMYKRSVPGVGYVVVALNFGPEPATLPVASQFPGTGEHWLKVIASSLQAQPQAGTWINTRLYKLAPDSGIVLERLTGRNDLMT
In the case of B3, the Km (purified protein [3]) is reported as 20.4 ± 7.4 mM, the Vmax (purified protein [3]) is reported as 740 µM/min and the kcat (purified protein [3]) is reported as 815 ± 60 s⁻¹. The kcat/Km (purified protein [3]) was 40000 ± 2920 M⁻¹ s⁻¹.
